{"source": "the DeepSol protein solubility set"}
{"assay": "soluble on expression in E. coli; label from the status in PepcDB or PDB records"}
{"sequence": "TVQCKVTLLDGTEYSCDLEKHAKGQVLFDKVCEHLNLLEKDYFGLLFQESPEQKNWLDPAKEIKRQLRNLPWLFTFNVK", "soluble on expression in E. coli": "not soluble"}
{"sequence": "MKFTWYGQSCFLIETSRNKKILLDPFNNSIGYPTFKGEADIITVSHHHFDHDFIDCVTNSPKVIDKPGDYKIDDITIKGIPSFHDNVHGAARGENTIFLFNIDGFNVCHLGDIGYVLSDLEVKSLGNVDVLMIPVGGNFTIDGAEAGQLCKKINSNIILPMHYKTTFTILPLEGAEKFIMSMKNAERLQSNVLTLDTKTNEKNQVKIFSIKLEHHHHHH", "soluble on expression in E. coli": "not soluble"}
{"sequence": "MSEPVKLRAHTQAHCKDCSLAPLCLPLSLNTDDMDSLDQIVKRGRPLKKGEFLFRQGDTFESVYAVRSGALKTFNISDNGEEQLTGFHLPSELVGLSGMDAEAYPVSAQALETTSVCEIPFERLDELSVQLPQLRRQLMRVMSREIRDDQQMMLLLSKKTADERIATFLINLSARFRARGFSANQFRLSMSRSEIGNHLGLAVETVSRVFTRFQQNQLVSAEGKEIHILAPIELCALAGGAMQS", "soluble on expression in E. coli": "soluble"}
{"sequence": "METVQLRNPPRRQLKKLDEDSLTKQPEEVFDVLEKLGEGSYGSVYKAIHKETGQIVAIKQVPVESDLQEIIKEISIMQQCDSPHVVKYYGSYFKNTDLWIVMEYCGAGSVSDIIRLRNKTLTEDEIATILQSTLKGLEYLHFMRKIHRDIKAGNILLNTEGHAKLADFGVAGQLTDTMAKRNTVIGTPFWMAPEVIQEIGYNCVADIWSLGITAIEMAEGKPPYADIHPMRAIFMIPTNPPPTFRKPELWSDNFTDFVKQCLVKSPEQRATATQLLQHPFVRSAKGVSILRDLINEAMDVKLKRQESQQREMDQDDEENSEEDEMDSGTMVRAVGDEMGTVRVASTMTDGANTMIEHDDTLPSQLGTMVINAEDEEEEG", "soluble on expression in E. coli": "soluble"}
{"sequence": "MAHHHHHHMSGEVDFWSATIAAYQPLQLTSPELTPKLLKRPPFRFIHDIVCSIDARFAAYDHIIPAELRDSAQVDTKEKKIEYLTTLIQYINRIMKVEIDVNPKKIVSGNEPEKTNIFLQYLAAGVGYAQQDKAAQATPAPQQKSAASLASPASPAAASFSTNPAQDNLSLSLASGLCRKKSSSRDPAERRRSHVSVFDEAAKFNRKLSGYSLNLNLDEQRDVRSEGQSIVRMWNELANPQTETKPSHMPQEALETAIKRQIETVKMVQELLSENDRVIDKLEALVI", "soluble on expression in E. coli": "not soluble"}
{"sequence": "MSYTKEQLMLAFSYMSYYGITHTGSAKKNAELILKKMKEALKTWKPFQEDDWEVVWGPAVYTMPFTIFNDAMMYVIQKKGAEGEYVIAIRGTNPVSISDWLFNDFMVSAMKKWPYASVEGRILKISESTSYGLKTLQKLKPKSHIPGENKTILQFLNEKIGPEGKAKICVTGHSKGGALSSTLALWLKDIQGVKLSQNIDISTIPFAGPTAGNADFADYFDDCLGDQCTRIANSLDIVPYAWNTNSLKKLKSIYISEQASVKPLLYQRALIRAMIAETKGKKYKQIKAETPPLEGNINPILIEYLVQAAYQHVVGYPELMGMMDDIPLTDIFEDAIAGLLHHHHHH", "soluble on expression in E. coli": "soluble"}
{"sequence": "MSLKGTYEKSIHIVKKNKYKTIDVVFGNLKEGIPLAEKSINHGTRIIISRGGTYNMLKATYNIPIVEIKVDAYDIIKSYKEVKNSNEPFGIIGFNNVIYGFDIIEEILNKKITMIEIEKEEEIYDAIEKYRKKGINTYIGDTTVAHIVKRLNCKGILIESREENILRAIQQAEQILEATKDEQKREGHHHHHH", "soluble on expression in E. coli": "not soluble"}
{"sequence": "MGSDKIHHHHHHATEADVEAAFNPYKNGFPSFPGLAAGTVVNKGNVEQFKDALDPGLYQIVKNGWDEIKVGPTTQFAMDKFYVEATKKNLNTAKLGAQNGEITGFVAGRPFPEEPKADDPRAGEKLAWNFKYGLNWGDNAAIYPFYWKYRNMTSGQVERTLKFNFHFLNFKHRVQHAPVPEVTPNPSELFRGIYVKVLEPQDLKNTQLLIQRYEDDLKFDDAYLYLGFQRRVRRLATGQTTDAFLGADLMIEDFEGYNGRISDMKWTFKGTKNILMPYYNHNELQLTDEFKDPSGYKFVDFGGQGGCFPKITWQLRKVYVLEAAPVLASHPVSKRVFHVDAQVFNINRTLIYDRKGELWKTFTIGKSHPDHHLPVNKGTGIAIDDSFSMIDVQAKHCTTGQFKGQVDPKLNPPSLFQVQNMRGGD", "soluble on expression in E. coli": "not soluble"}
{"sequence": "MGSDKIHHHHHHMLKELHLQQVGPAAHFDVAFADRLNIFTGDNGLGKSFLLDIAWWVMTTNWAEQPAYPQRVKGENPQITAVVSNKKNIREYQSQFDFSEQQWRNLQMPPLLKEVVIYVRVDGSFSIFDPARQRDIAYNFNPNTLWNGLKSKDKVICNGLIQDWVTWQNQPNKYPFELFSNVIKKLAPHPSEWIEVGETTRVSIEDVRDIPTVNLPYGNVPVTQTSAGMKRILGLAYLLVWTWYEHKKASELRQQKPVNQIVLLIDEIESHLHPRWQRVILPAILSVVTELQPRMKIQALVTTHSPLILASLEPNFHEQEDKLFLFKLQDSEVSLDEVPWSKQGDIVGWLTSDIFGLKQARSKEAEIAIEAAEAWMRDDDMNTFPENLRISTQIHQELQRVLPGHDPFWPRWIVTTEKRNSGLSGV", "soluble on expression in E. coli": "not soluble"}
{"sequence": "MGSDKIHHHHHHNNDDDGTNKAQEIAGKYEGYSIGNCAMFTDYVMGEKSVATIVPNEDGTINVTYDSGSGEFKLNNIKVTSKTFEGSGQVELSMNDKPAGAKDFTLTGSIDEQQKLTLKVNVPSVMGGLTIEFIQGTLPISYHVSGTYNKEANLSVSVGSTTYPDITDCKVSIKRSSDDTVELTLKGLSNLNSSQTGRAMNLGDFTVTDVKVTSTDNSIFKIEGSINTTDTNNTPITGTLSGTVSNSETNITFTFKPGAMPIDITAMFKGKK", "soluble on expression in E. coli": "not soluble"}
{"sequence": "VTYEEEAVPAPVRGRLEVLSDLLYVASPDRAMVFTRTKAETEEIAQGLLRLGHPAQALHGDMSQGERERVMGAFRQGEVRVLVATDVAARGLDIPQVDLVVHYRMPDRAEAYQHRSGRTGRAGRGGRVVLLYGPRERRDVEALERAVGRRFKRVNPPTPEEVLEAKWRHLLARLARVPEKDYRLYQDFAGRLFAEGRVEVVAALLALLLGGAPAERSLLTGEEGWRTYKATGPRLSLPRLVALLKGQGLEVGKVAEAEGGFYVDLRPEARPEVAGLRLEPARRVEGLLEIPSRTRRPARA", "soluble on expression in E. coli": "soluble"}
{"sequence": "MPSLFSEDKLPALTYHCSVELNGNIYIFGGLMPCYSYEEDAPMLNDFFVDGIKNLPPPLLPQVINNPSMVNNPHLYVASIPSCRFSKPKMGGYIPPPLLCVQGSKLTDRHIFFYGGFEIRTETRGDENGKYHLKKRLYVNNTGYILDIMSFKF", "soluble on expression in E. coli": "not soluble"}
{"sequence": "SFPGDYDNYLLEKEEMLRVEEMQNAEFDKKLAQEEVWIRQGIKARRTRNEGRVRALKKLREERRDRREVQGKVNLNIDDASRSGKIVF", "soluble on expression in E. coli": "not soluble"}
{"sequence": "MGSDKIHHHHHHMPIKALRLKAMQLKATRLKAKLLQARLLQASALLGTSLNLVAMAAPYNAINESIDDGFVEAGDILVIAIPATGYLASWLYDDFEGAKQLTFSVLTTQLIVEATKSTVGRYRPNSNVAGGSYKSFPSGHSAGAFSGAAFLQSRYGSRWGIPAYLGAGVVAASRVHGRRHYADDVLGGAGIAILVNQYFVERYDNQGLAVSLFPNDEGGLQFNLSMPLDGPLNGRAGPRAEKRAQPAVHGPKRHRFAVNLGFNMTDSLGMAGAKDLLPDSQLVDDHQPFSYLLYEYLDSSKTSLQLELSPNETRLFGTLSGEFELDGKQYQDGDSLYLAFKQWSLGSQYFYRFAPQGDWHFKLGGGLYAYWVELEVDYLTGGQYAGEGSLEVMPSIEGRTRYHIGGGLSADAMARFQAWSGNQLVAAEAGLSYALGEEWVMGLKYAYSEAKWDALNMEYQTDSIVLTVENRF", "soluble on expression in E. coli": "not soluble"}
{"sequence": "MAKKTSSKGKLPPGPRPLPLLGNLLQMDRRGLLKSFLRFREKYGDVFTVHLGPRPVVMLCGVEAIREALVDKAEAFSGRGKIAMVDPFFRGYGVIFANGNRWKVLRRFSVTTMRDFGMGKRSVEERIQEEAQCLIEELRKSKGALMDPTFLFQSITANIICSIVFGKRFHYQDQEFLKMLNLFYQTFSLISSVFGQLFELFSGFLKHFPGAHRQVYKNLQEINAYIGHSVEKHRETLDPSAPRDLIDTYLLHMEKEKSNAHSEFSHQNLNLNTLSLFFAGTETTSTTLRYGFLLMLKYPHVAERVYREIEQVIGPHRPPELHDRAKMPYTEAVIYEIQRFSDLLPMGVPHIVTQHTSFRGYIIPKDTEVFLILSTALHDPHYFEKPDAFNPDHFLDANGALKKTEAFIPFSLGKRICLGEGIARAELFLFFTTILQNFSMASPVAPEDIDLTPQECGVGKIPPTYQIRFLPRHHHH", "soluble on expression in E. coli": "soluble"}
